Test system: Saccharomyces cerevisiae
Assay: transcriptional activation domain activity (GFP:mCherry ratio, weighted mean of sorted bins, harmonized to initial dataset scale) (arbitrary fluorescence ratio units); higher = stronger transcriptional activation
Settings: beta-estradiol 1 µM; induction time 4 h
How it was run: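 For this assay, yeast diploids with a GFP reporter carried barcoded protein tiles at URA3, each fused to an estradiol-inducible synthetic transcription factor. Induction was a 1:5 dilution into SC with 1 uM beta-estradiol for 4 hours at 30 °C, followed by sorting into 8 bins by GFP:mCherry ratio and barcode sequencing. Tiles under 50 reads were dropped, and activation activity was calculated as the read-weighted mean of bin median fluorescence, averaged across barcodes and linearly mapped onto the initial dataset scale.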

| Sequence | transcriptional activation domain activity |
| --- | --- |
| MSWLVSISFMFYTFILPFYYYYKHSTTLFIYTYIYISLYIPIWFVYNHPYHLL | 43000 |
| MSWPDRGYYYCLMVISLLSAKLMHLFSHFTALPLILFLLYLPTFLLLDLLVVF | 60500 |
| MSWPFFYLSFSLFFPPLLLDRGLLLLCGFFFLFLYIFLPGILWHLEAWFFLLV | 59300 |
| MSWPFPFFFLLFRLFLSLFRGGCFWVQIFVFIPEYLVYSILFSFFFTVIYLFV | 40400 |
| MSWQKVHSLFFLYFILPHGGFLFLVIRNIFFFFTYDLVLLWSFKFLLHLYVIF | 59800 |
| MSWQRVYRGWVVNGPGFGFFGRYYWIIIIRLAVPRRLLTCSCWCFGWLLFFLI | 65700 |
| MSYCIDFPVISSFPAASFYFIFMGTLQDHLPFSLLVYSTLIPFFFFSFLFLSF | 41600 |
| MSYFVFPLLLPSLPRVLPRHSICILHFLLHFRTPPSPNLTHSLLIFLFLLLVR | 64000 |
| MSYGKRDEDAELGLVKVDRTQVFQEARLFNSSPIQPRKCRILLTKIALLLYTG | 24100 |
| MSYIRSCLSFSPFFSFLFLFLPFFFLSFLPFSMCFLCKAFECLFVGGIKHMEH | 37400 |
| MSYLQMFTLIEGKFQKQMLFLFFFLLCNLLSFFYIYIYVLLTLIFFTTTSIHL | 56700 |
| MTCCLNLFCLLLINLIFFVCACCLLVFSLLAIQNKLPECILLPINIFKMLTIL | 52900 |
| MTCFVCNPFLLCAKVFVFFSVSWWVVLSSLFWGCFLMYVFLLFPIKMFLRFCS | 61000 |
| MTDRCRVRCTKLIIIIKGIFFWVSLVSLLFFFLLILSAFSFFLLLLLYYLFTI | 46200 |
| MTEDEGKPRRKRARLACTACNARRVKCNVTESRPCHNCIAGNVLCETVPSRRG | 36100 |
| MTEPMLFFVLYFIRLLPFSFIFFHFLSFSLSILFFVILFSSSFHPFSSSFFFI | 53400 |
| MTEQAPTIRTAEKDTEGPAKRRRRPALSCVECRSRKVRCDRGKPCRACTRVRS | 26200 |
| MTEQPPAIRIADKDGDGPAKRRRRPALSCAECRNRKVRCDRREPCGSCTRLRS | 42400 |
| MTEREPDNEQQPRKRIAVACGRCRKRKIRCSGDPGNGEPCTNCRNANAEPCQF | 38700 |
| MTESHRPNQSLGLDDAAGGRKPAKRKAHRKSRTGCRQCRASRVKCDENKPSCS | 41000 |
| MTFLHLYFSLSSCLLKTCLSFFVPTPQLLHFTSCIFICFIGTGVFFLYFPFLF | 65700 |

| Sequence | transcriptional activation domain activity |
| --- | --- |
| MTFLPFSLFAFLFRCLLFFLAIFRLRYALFLFLFFSFLYLYPFYLHILHIVAY | 52600 |
| MTFVSEALITHRIDGGDIGVVNIFSKNKWRSKVYVRILVQICMRWVMMAIYLN | 55700 |
| MTGFSFLLMTFFFFLFFLFFFFISLFLLFFPLFSSHSLFFRLLAICSGLWCSG | 60000 |
| MTGIFFFFFLLFLFLQLGIGTVFERLLSFQFPNYILFPILPPLHPSSPPFFTY | 38600 |
| MTGRHLWGIGVLFLPLLFFLLDFPFFSFSFLLMCLCEILSIFFWLHFSLGREG | 44900 |
| MTGTTLLPPPFISNDVTNSADSTNIKPSPSSSVDNLNDYLTDINSLAWGVNSL | 67600 |
| MTHALNIVTYLYRQHLLEDEHFLDWILRNLGPCPLERLLVWLLLVSLYWRDLI | 49800 |
| MTHILGYIHRSCYFLFLRSFLNFDISCCWITLSWLLCRSILYYCRPMVKILSS | 66300 |
| MTIDVIHVTYFTFFFFIIVLIYAHLVIPYILDVELLTYFLNDAFKWNMLNMLF | 50200 |
| MTILVILSILCLFQSYMGGMYSLDAHWVDIGLLRIYCNTLCIKMCQILMQFLL | 22700 |
| MTISSPYCLFRCVAYGPWQTLSVLFCFFFFLLLFLSPSLHHLFYFLSLDFFSY | 55500 |
| MTKPIIIKINHIFALRHYYLPYFHPYILFVFFSSLFTLRGTMWLILLFFGSFA | 50300 |
| MTLASLAARRSNCMKRRVGCVVVSQPDRRVISTGYNGTPRGIRNCGEGGCPRC | 39100 |
| MTLCTFFGCLLTAYSPLLSIFFLYIAPNAQYVLLMVASAFFCLLALLLSSVIW | 55000 |
| MTLGLMAFSEYNFADYACLFLFSSFLLFYLIFPIFSFLLLCVYFFFVSFHLYA | 27600 |
| MTLITIIDLESFIFEDCIDLILFSQFLDSFQHSAVLTAYINWYTNADWWRSIV | 66900 |
| MTLLFMWLIVRYILCYVSYYRRYAHRVGTQLPPTYPSFIPKYGTALSYLLAPA | 58700 |
| MTLLLLLLLLLFSYNFTYIYLFFLLLSFHLCVSLYTTFTLNFIFLYTSLYILD | 74200 |
| MTLLVGYLGVFFLLFSSPSLLEFFFFVTYRVFVVFFFSSSFFFLGYPVFFFFF | 36600 |
| MTLTFWFFLPLLDILSGLKFEFLPMLVFYFYFFPFASFCRFEALDIWTWILII | 48100 |
| MTLTLHPCAQTQFLTAFYCIYCHLTWRCSLLILINMGLGLIQRYVFPLLTFLF | 43400 |

| Sequence | transcriptional activation domain activity |
| --- | --- |
| MTLVVMMILPPLASLDCFLLSFFFSLLLSPTFPLVLFFSVYKFFHFSTFPFFV | 54800 |
| MTMRKSFEYSFSREIYFLFFFLFFSFLFFLSFLSFSLSLFFFFPLHPGLFRLV | 54400 |
| MTNFSVALNVHTQIAYHNAEALRLKCMYNASSLLAKLPPHVLALIFLNHANWF | 36200 |
| MTNLFSASFLSSSSSLSFFFSLFFLLFQRYLLEERPLTIMAFYLLPFFFSLSL | 29800 |
| MTNQPTTQDGPSPVKHRACDECRSRKLACSKEPDGCSRCKKEGIVCHYSAQKQ | 28400 |
| MTNRLHIICHICVFYGYVLMFPAITSYYFILLCILILILHLFIFILAHFYKDR | 37300 |
| MTNRLHIVCHICVFYGYILMFQAITSYHYFILLCILILILHLLTFILVYLYKD | 38400 |
| MTNRQRVGHKKSRHGCIRCKARRVKCDEQRPCSNCVRHRTPCSLSQEPLAAAL | 45200 |
| MTPRAQDSSSDDKEDKKDTDRAAIRAAQNRKAQRLYRQRKEARVRELEATVAK | 78900 |
| MTQLYPFFLLFFAGLTMLLLLNHTFLPRVSVKSVKSLFRCNVRGFGTFFLFFL | 43800 |
| MTRAFTIMINLITIVLSFLMSQSFTSYVCHILLCPLANLRPQLLYIWWVSPVL | 54200 |
| MTRMLPLSFELFKFIVNLCLALVFTSWLFSWSKMLLILGLICVCRDFLSLVIV | 31700 |
| MTSPPLIKEEQTSSDESQIQQQSKTRRPKTRASVACTSCRDRRIRCVVPSGKK | 55700 |
| MTSPPPPSITVSHLALVPFFRTPVSAYSLLFLLFFRLGLCLSCWLFLLFSFLF | 65800 |
| MTSRHSFKAIKVLVICCVFLFFLLLKRKDHFNSCCLIFHIKIGLIDVLIFFYF | 41900 |
| MTSRLHIICHICVFYGYILMFQAITSYHYFILLCILILILYLLTFILAHFYKY | 36800 |
| MTSWPLLPPYSIHAMIKMIAFSSLFCSFFSLHLFFYYYLPLYIAVFIFFIVTH | 32400 |
| MTSYVHQALVRFIGVTLTYQEYKEKLGRSFYLRNLAENTTMLGFLCWVNILHF | 33800 |
| MTTDNTQKPTISLVEKVDLVFRLLAIAPLRHAIHFTRSLFIAYWRGLPLRLHI | 70300 |
| MTTLYISFLFFLFCASFTFCTIFFFFFFFFTQWLYSSPLHLSLSLSLLFLFLI | 65100 |
| MTTNRDKAFFFFFNCERPIFNFFFCPFFLFFYIPFYFPYPYFFSFSYFSFLYL | 78200 |

| Sequence | transcriptional activation domain activity |
| --- | --- |
| MTTWHKVFFFFRNLSFFCLFCLSCFFFLLLFLMKLETTNKVSILYLSLTLILF | 43700 |
| MTVDHDFNSEDILFPIESMSSIQYVENNNPNNINNDVIPYSLDIKNTVLDSAD | 76400 |
| MTVDTLSYTLFPFYSLLSHFLLLLAEIVLCLKYCLLLTLFSILLFLLVFLFLA | 32800 |
| MTVEPSISLLFIDYLLFLIPFLSLFILFSLVLLLSYISPCNFFFFAISSQLPW | 39200 |
| MTVIRFLKMIGPFFFLLLSFLLFPFFFFFIPFKMTLLSFLLLFPLFILHSVHC | 47500 |
| MTVLQYPFRFIVRTHFPLIWAYSSSLGVGYVFLIGSFFLFISLHPLPLFCLLC | 66100 |
| MTVMTLCFFGSSFGPWAGAWFCCLLLLLLLLVIAVSLFLHVCFAWEFWFCLCY | 39500 |
| MTVSLQLYSHTLQLVLCCACAPPLLKFLLFCFFFFFWFFFFFWFCFWFFLLMF | 38000 |
| MTVSWLRRLGTFLFEFFFFFSFFSFFFFLFSFFFFLFFLFSYFPFFSFFSFFS | 21600 |
| MTVTPVNGYGWSRANKIGWTVFYISLWGYSNCSYFFPLPLYFSYVFFFFPFYP | 42200 |
| MTWFGILPPFSWPWIYPRSFGMCGNLSTTLFLHVLIALFFFFCLFFHLCLLWL | 50200 |
| MTWFLSFWLKCGFVLLGLFFDFFLFCNRFLYASISFFFFFHSLSLFWNRNHLF | 79900 |
| MTWFTATLTVLYHLTHPIITIFRWLLLPLTPFYHLFSYIFSTLFLLPSLYIYF | 53100 |
| MTWRGLSLLLSVLLITWCDPAFFPPVYIQFLFIFIFAWLHLIFLFLIQYLGCI | 37900 |
| MTYLPFINFSLDIFVIVIVIVIYFPFFVTNFFNWFFSPFWCYLINYLFNLNLF | 52400 |
| MTYTFDLFSSFLSIVYMPHMATLYFLFFFLLLQCGYFIVLCFFFFHCVLCCFS | 67000 |
| MVAAATARTRRAATVATRRTRPVVMAMAVVVATRNRRATTRAAGIRQAGIRRV | 45900 |
| MVAVVEVWVGEGVGEFWHLVKVWEGFLKLEYPVFFFDVWFFYDPFFCALGFFI | 79300 |
| MVCCAFFVVFFLIEIFIILFLCLPFFSFLFLLWEGRVGGYALWLLSVQVCVRT | 55800 |
| MVCFKRSGLSLVFFFFFFFFFLLLVFFLFFFSLLLPIIISLVVRADLLMVHPH | 31200 |

Source: the supplement of paper PMC12636428
